# Experimental data published in publication PMC4381397, “The recently identified modifier of murine metastable epialleles, Rearranged L-Myc Fusion, is involved in maintaining epigenetic marks at CpG island shores and enhancers”.
# B1: PP4 pentaprobe (ssDNA)
# DNA: TATCCTACCCATTGGGCTCATCTGATCCATCCGGTCCCGTCCACTCGGCTATGTTATGCTGTATTGCAGTCGTGTCGCGTCGAGCTGCCCTAATCCCACC
# B2: PP2 pentaprobe (ssDNA)
# DNA: TATCTTACTTTAGTTTCATTTAATTGTGTTGTACTCTCCTCTGCGTTCACTTAGCTTAACTTGGTTTGGCTTGATTTGACTTCAGTTGCGCTCTATTCTA
# Target: Gata1CF (UniProt P17679 249-311)
# Sequence (P17679 249-311): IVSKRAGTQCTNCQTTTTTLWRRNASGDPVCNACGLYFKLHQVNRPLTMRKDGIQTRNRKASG
# Assay: EMSA; 0.5 and 5 uM protein, 5 nM probe, 10 uM ZnSO4; 10 mM HEPES pH 7.9, 30 mM NaCl, 1 mM MgCl2, 20 uM EDTA, 10 mM DTT, 10 uM ZnSO4, 67 ug/mL acetylated BSA, 4% Ficoll; on ice 30 min
# Conditions: protein: recombinant; label: 5' FAM
row,Binder,binding result
1,B1,binds
2,B2,binds
